The target in this assay is transmembrane domain of Thermus thermophilus MgtE (278-450) (Thermus thermophilus) (UniProt Q5SMG8). As to the kind of experiment: crystal structure.

In general, stoichiometry N refers to a count of units in the complex or per binding partner.

“transmembrane domain of Thermus thermophilus MgtE (278-450) (from UniProt Q5SMG8 278-450) (domain or fragment)”: the stoichiometry N turned out to be 2.
